Biological target: T1, ^15N-labelled ubiquitin (WT, untagged) (UniProt P0CG48 1-76, ^15N-labelled)
T1 construct: ubiquitin, the 76-residue mature protein; also called ^15N-ubiquitin; source: E. coli BL21 (DE3) in M9 medium with ^15N-ammonium chloride, purified (cation exchange, Superdex 75 SEC)
Experiment: NMR titration; ^1H-^15N HSQC of ^15N-ubiquitin titrated with unlabelled UBR4-UBL; 25 mM NaPi pH 7.0, 150 mM NaCl, 1 mM TCEP, 10% D2O; global fit of chemical shift perturbations to 1:1 binding
Settings: both partners purified

B1: 6×His-tagged UBR4-UBL (residues 4340–4463) (domain or fragment, human, UniProt Q5T4S7-1 4340-4463, looked up)
chain: YPEENEVTEFFVTLEKDPQQEDFLQGRMPGNPYSSNEPGIGPLMRDIKNKICQDCDLVALLEDDSGMELLVNNKIISLDLPVAEVYKKVWCTTNEGEPMRIVYRMRGLLGDATEEFIESLDSTT
notes: UBR4 ubiquitin-like (UBL) domain, residues 4340–4463 of UniProt Q5T4S7-1; also called UBL domain; UBR4 UBL domain; source: E. coli BL21 (DE3), purified (Ni-NTA HisTrap FF, Superdex 75 SEC)
  Kd: 124 µM

— PMC12286842 (Nature, 2025)
